This is an account of results in publication PMC6527236.

Series [1] relates to φ29 SSB Y57A (Bacillus subtilis phage φ29). As to the kind of experiment: unwinding (oligonucleotide displacement gel). Particulars: 80 μM SSB, no Mg2+ listed, helix destabilization, indirect binding read-out, EMSA: 12 mM Tris-HCl pH 7.5, 10 mM MgCl2, 1 mM DTT, 4% glycerol, 0.1 mg/ml BSA, 3 nM DNA, 15 min, 4 °C, unwinding: 50 mM Tris-HCl pH 7.5, 4% glycerol. In general terms: A gel shift assay detects complexes by their altered migration in electrophoresis.

The subject of series [2] is φ29 SSB Y50A (Bacillus subtilis phage φ29). As to the kind of experiment: unwinding (oligonucleotide displacement gel). The following applies: 80 μM SSB, no Mg2+ listed, helix destabilization, indirect binding read-out, EMSA: 12 mM Tris-HCl pH 7.5, 10 mM MgCl2, 1 mM DTT, 4% glycerol, 0.1 mg/ml BSA, 3 nM DNA, 15 min, 4 °C, unwinding: 50 mM Tris-HCl pH 7.5, 4% glycerol.
The test system of series [3] is φ29 SSB Y57A (Bacillus subtilis phage φ29). As to the kind of experiment: EMSA. The following applies: 60 μM SSB, 10 mM Mg2+, more retarded band at the highest concentration only, EMSA: 12 mM Tris-HCl pH 7.5, 10 mM MgCl2, 1 mM DTT, 4% glycerol, 0.1 mg/ml BSA, 3 nM DNA, 15 min, 4 °C, unwinding: 50 mM Tris-HCl pH 7.5, 4% glycerol.
The subject of series [4] is φ29 SSB Y50A (Bacillus subtilis phage φ29). Briefly: EMSA. The following applies: 60 μM SSB, 10 mM Mg2+, EMSA: 12 mM Tris-HCl pH 7.5, 10 mM MgCl2, 1 mM DTT, 4% glycerol, 0.1 mg/ml BSA, 3 nM DNA, 15 min, 4 °C, unwinding: 50 mM Tris-HCl pH 7.5, 4% glycerol.

Turning to M13mp18 ssDNA annealed to 17mer, the results for the binding signal (% of wild-type 17mer displacement) in series [1] and in series [2] were 17 and 97, respectively.

On to 216mer yshC fragment, heat denatured, for which the binding signal (% of wild-type binding) in series [3] was 17; in series [4], 96.
